Assay results as given in US20070041999A1 (published 2007).

Target: the molecule itself
Experiment: disassembly by dialysis, size exclusion chromatography / SEC-HPLC; self-association of capsid protein
Method: Dissasembly of plant produced CCMV virus particles: Purified CCMV was disassembled by dialysis against buffer A (50 mM Tris HCl pH7.5, 500 mM CaCl₂, 1 mM DTT, 0.2 mM PMSF) for 16-29 hours at 4° C. The disassembled virus was centrifuged at 14,000 rpm for 15 min at 4° C. to pellet the viral RNA. The remaining supernatant was dialyzed against buffer B (200 mM Tris HCl pH7.5, 1M NaCl, 1 mM DTT, 0.2 mM PMSF) for 2 hours at 4° C. The CCMV dissasembled into capsid protein dimers that were further purified by FPLC Superose 12 size exclusion chromatography. The diassambled CCMV was analyzed by SEC-HPLC (FIG. 8).

B1: Wild type CCMV coat protein encoded by sgRNA4 (other)
chain: STVGTGKLTRAQRRAAARKNKRNTRVVQPVIVEPIASGQGKAIKAWTGYSVSKWTASCAAAEAKVTSAITISLPNELSSERNKQLKVGRVLLWLGLLPSVSGTVKSCVTETQTTAAASFQVALAVADNSKDVVAAMYPEAFKGITLEQLTADLTIYLYSSAALTEGDVIVHLEVEHVRPTFDDSFTPVY
notes: also called CCMV CP; CCMV capsid protein
- binding result: binds
